Assay results as given in the Human Domainome abundance scans (Beltran et al. 2025).
± gives the uncertainty stated by the source.

B1: Histone H1t, residues 44 to 112; numbered along this chain, P22492 (parent)
chain: VSKLITEALSVSQERVGMSLVALKKALAAAGYDVEKNNSRIKLSLKSLVNKGILVQTRGTGASGSFKLS

Variants of: B1
Test: abundance fitness (aPCA) (normalised: wild type 0, dead -1); higher = more abundant; growth selection in yeast, the domain comes from the species named
Conditions: Homo sapiens

**Q.** With VSKLITEALSVSRERVGMSLVALKKALAAAGYDVEKNNSRIKLSLKSLVNKGILVQTRGTGASGSFKLS [Q13R] as the variant, how does the abundance fitness read?
**A.** The abundance fitness was -0.093 ± 0.062.

**Q.** Which abundance fitness does the source give for VSKLITEALSVSNERVGMSLVALKKALAAAGYDVEKNNSRIKLSLKSLVNKGILVQTRGTGASGSFKLS [Q13N] here?
**A.** The abundance fitness was -0.206 ± 0.053.

**Q.** For VSKLITEALSVSCERVGMSLVALKKALAAAGYDVEKNNSRIKLSLKSLVNKGILVQTRGTGASGSFKLS [Q13C], which abundance fitness is on record?
**A.** Its abundance fitness is -0.233 ± 0.07.

**Q.** For VSKLITEALSVSDERVGMSLVALKKALAAAGYDVEKNNSRIKLSLKSLVNKGILVQTRGTGASGSFKLS [Q13D], which abundance fitness is on record?
**A.** The abundance fitness was -0.222 ± 0.14.

**Q.** Which abundance fitness does the source give for VSKLITEALSVSEERVGMSLVALKKALAAAGYDVEKNNSRIKLSLKSLVNKGILVQTRGTGASGSFKLS [Q13E] here?
**A.** The abundance fitness was -0.05 ± 0.14.

**Q.** For VSKLITEALSVSMERVGMSLVALKKALAAAGYDVEKNNSRIKLSLKSLVNKGILVQTRGTGASGSFKLS [Q13M], which abundance fitness is on record?
**A.** The abundance fitness was -0.377 ± 0.046.

**Q.** Which abundance fitness does the source give for VSKLITEALSVSSERVGMSLVALKKALAAAGYDVEKNNSRIKLSLKSLVNKGILVQTRGTGASGSFKLS [Q13S] here?
**A.** Its abundance fitness is -0.242 ± 0.044.

**Q.** Which abundance fitness does the source give for VSKLITEALSVSFERVGMSLVALKKALAAAGYDVEKNNSRIKLSLKSLVNKGILVQTRGTGASGSFKLS [Q13F] here?
**A.** Its abundance fitness is -0.613 ± 0.041.

**Q.** With VSKLITEALSVSGERVGMSLVALKKALAAAGYDVEKNNSRIKLSLKSLVNKGILVQTRGTGASGSFKLS [Q13G] as the variant, how does the abundance fitness read?
**A.** The abundance fitness was -0.211 ± 0.065.

**Q.** Which abundance fitness does the source give for VSKLITEALSVLQERVGMSLVALKKALAAAGYDVEKNNSRIKLSLKSLVNKGILVQTRGTGASGSFKLS [S12L] here?
**A.** Its abundance fitness is -0.005 ± 0.032.

**Q.** Which abundance fitness does the source give for VSKLITEALSVNQERVGMSLVALKKALAAAGYDVEKNNSRIKLSLKSLVNKGILVQTRGTGASGSFKLS [S12N] here?
**A.** Its abundance fitness is -0.202 ± 0.052.

**Q.** For VSKLITEALSVYQERVGMSLVALKKALAAAGYDVEKNNSRIKLSLKSLVNKGILVQTRGTGASGSFKLS [S12Y], which abundance fitness is on record?
**A.** The abundance fitness was -0.48 ± 0.042.

**Q.** With VSKLITEALSVVQERVGMSLVALKKALAAAGYDVEKNNSRIKLSLKSLVNKGILVQTRGTGASGSFKLS [S12V] as the variant, how does the abundance fitness read?
**A.** The abundance fitness was 0.095 ± 0.049.

**Q.** For VSKLITEALSVHQERVGMSLVALKKALAAAGYDVEKNNSRIKLSLKSLVNKGILVQTRGTGASGSFKLS [S12H], which abundance fitness is on record?
**A.** The abundance fitness was -0.353 ± 0.13.

**Q.** Which abundance fitness does the source give for VSKLITEALSVPQERVGMSLVALKKALAAAGYDVEKNNSRIKLSLKSLVNKGILVQTRGTGASGSFKLS [S12P] here?
**A.** Its abundance fitness is -0.486 ± 0.18.

**Q.** For VSKLITEALSVKQERVGMSLVALKKALAAAGYDVEKNNSRIKLSLKSLVNKGILVQTRGTGASGSFKLS [S12K], which abundance fitness is on record?
**A.** The abundance fitness was -0.275 ± 0.054.

**Q.** Which abundance fitness does the source give for VSKLITEALSVFQERVGMSLVALKKALAAAGYDVEKNNSRIKLSLKSLVNKGILVQTRGTGASGSFKLS [S12F] here?
**A.** The abundance fitness was -0.038 ± 0.032.

**Q.** Which abundance fitness does the source give for VSKLITEALSVMQERVGMSLVALKKALAAAGYDVEKNNSRIKLSLKSLVNKGILVQTRGTGASGSFKLS [S12M] here?
**A.** The abundance fitness was -0.093 ± 0.044.

**Q.** For VSKLITEALSVCQERVGMSLVALKKALAAAGYDVEKNNSRIKLSLKSLVNKGILVQTRGTGASGSFKLS [S12C], which abundance fitness is on record?
**A.** The abundance fitness was 0.024 ± 0.067.

**Q.** For VSKLITEALSVAQERVGMSLVALKKALAAAGYDVEKNNSRIKLSLKSLVNKGILVQTRGTGASGSFKLS [S12A], which abundance fitness is on record?
**A.** Its abundance fitness is -0.007 ± 0.08.

**Q.** With VSKLITEALSVDQERVGMSLVALKKALAAAGYDVEKNNSRIKLSLKSLVNKGILVQTRGTGASGSFKLS [S12D] as the variant, how does the abundance fitness read?
**A.** Its abundance fitness is 0.019 ± 0.076.

**Q.** With VSKLITEALSVGQERVGMSLVALKKALAAAGYDVEKNNSRIKLSLKSLVNKGILVQTRGTGASGSFKLS [S12G] as the variant, how does the abundance fitness read?
**A.** The abundance fitness was 0.019 ± 0.048.

**Q.** For VSKLITEALSVRQERVGMSLVALKKALAAAGYDVEKNNSRIKLSLKSLVNKGILVQTRGTGASGSFKLS [S12R], which abundance fitness is on record?
**A.** The abundance fitness was -0.511 ± 0.057.

**Q.** Which abundance fitness does the source give for VSKLITEALSVQQERVGMSLVALKKALAAAGYDVEKNNSRIKLSLKSLVNKGILVQTRGTGASGSFKLS [S12Q] here?
**A.** The abundance fitness was -0.034 ± 0.09.

**Q.** For VSKLITEALSVEQERVGMSLVALKKALAAAGYDVEKNNSRIKLSLKSLVNKGILVQTRGTGASGSFKLS [S12E], which abundance fitness is on record?
**A.** The abundance fitness was -0.429 ± 0.081.

**Q.** For VSKLITEALSVIQERVGMSLVALKKALAAAGYDVEKNNSRIKLSLKSLVNKGILVQTRGTGASGSFKLS [S12I], which abundance fitness is on record?
**A.** The abundance fitness was 0.042 ± 0.04.

**Q.** For VSKLITEALSVWQERVGMSLVALKKALAAAGYDVEKNNSRIKLSLKSLVNKGILVQTRGTGASGSFKLS [S12W], which abundance fitness is on record?
**A.** Its abundance fitness is -0.416 ± 0.068.

**Q.** With VSKLITEAQSVSQERVGMSLVALKKALAAAGYDVEKNNSRIKLSLKSLVNKGILVQTRGTGASGSFKLS [L9Q] as the variant, how does the abundance fitness read?
**A.** The abundance fitness was -0.697 ± 0.23.

**Q.** With VSKLITEAFSVSQERVGMSLVALKKALAAAGYDVEKNNSRIKLSLKSLVNKGILVQTRGTGASGSFKLS [L9F] as the variant, how does the abundance fitness read?
**A.** Its abundance fitness is -0.061 ± 0.027.

**Q.** With VSKLITEAISVSQERVGMSLVALKKALAAAGYDVEKNNSRIKLSLKSLVNKGILVQTRGTGASGSFKLS [L9I] as the variant, how does the abundance fitness read?
**A.** The abundance fitness was 0.045 ± 0.039.

**Q.** With VSKLITEAVSVSQERVGMSLVALKKALAAAGYDVEKNNSRIKLSLKSLVNKGILVQTRGTGASGSFKLS [L9V] as the variant, how does the abundance fitness read?
**A.** The abundance fitness was -0.301 ± 0.36.

**Q.** Which abundance fitness does the source give for VSKLITEAHSVSQERVGMSLVALKKALAAAGYDVEKNNSRIKLSLKSLVNKGILVQTRGTGASGSFKLS [L9H] here?
**A.** The abundance fitness was -0.915 ± 0.47.

**Q.** Which abundance fitness does the source give for VSKLITEASSVSQERVGMSLVALKKALAAAGYDVEKNNSRIKLSLKSLVNKGILVQTRGTGASGSFKLS [L9S] here?
**A.** The abundance fitness was -0.66 ± 0.1.

**Q.** Which abundance fitness does the source give for VSKLITEANSVSQERVGMSLVALKKALAAAGYDVEKNNSRIKLSLKSLVNKGILVQTRGTGASGSFKLS [L9N] here?
**A.** The abundance fitness was -0.826 ± 0.062.

**Q.** For VSKLITEAMSVSQERVGMSLVALKKALAAAGYDVEKNNSRIKLSLKSLVNKGILVQTRGTGASGSFKLS [L9M], which abundance fitness is on record?
**A.** Its abundance fitness is -0.145 ± 0.043.

**Q.** Which abundance fitness does the source give for VSKLITEAYSVSQERVGMSLVALKKALAAAGYDVEKNNSRIKLSLKSLVNKGILVQTRGTGASGSFKLS [L9Y] here?
**A.** Its abundance fitness is -0.1 ± 0.039.

**Q.** Which abundance fitness does the source give for VSKLITEAKSVSQERVGMSLVALKKALAAAGYDVEKNNSRIKLSLKSLVNKGILVQTRGTGASGSFKLS [L9K] here?
**A.** The abundance fitness was -0.194 ± 0.051.

**Q.** With VSKLITEATSVSQERVGMSLVALKKALAAAGYDVEKNNSRIKLSLKSLVNKGILVQTRGTGASGSFKLS [L9T] as the variant, how does the abundance fitness read?
**A.** Its abundance fitness is 0.03 ± 0.13.

**Q.** Which abundance fitness does the source give for VSKLITEALSVSQARVGMSLVALKKALAAAGYDVEKNNSRIKLSLKSLVNKGILVQTRGTGASGSFKLS [E14A] here?
**A.** Its abundance fitness is -0.456 ± 0.19.
